Data on 2 substances can be found in patent US20250084155A1.

Assay [1] concerns the target HSP70 (human HSP70; the antigen of the binning, humanization and variant binding assays) (human) (UniProt P0DMV8). Kind of assay: Octet epitope binning, sandwich format; cell row C92F3-5 / column m77A; the sheet does not say whether rows or columns are the first antibody. In general terms: In BLI a coated tip is dipped into the sample, and binding shifts an interference pattern.

Assay [2] shares this target. In words: Octet epitope binning, sandwich format; cell row C92F3-5 / column N15F2-5; the sheet does not say whether rows or columns are the first antibody.
For assay [3] the target is unchanged. Kind of assay: Octet epitope binning, sandwich format (first antibody on the sensor, then HSP70, then second antibody); cell row C92F3-5 / column C92F3-5; the sheet does not say whether rows or columns are the first antibody.
For assay [4] the target is unchanged. In words: Octet epitope binning, sandwich format; cell row N15F2-5 / column m77A; the sheet does not say whether rows or columns are the first antibody.
Assay [5] shares this target. In words: Octet epitope binning, sandwich format; cell row N15F2-5 / column C92F3-5; the sheet does not say whether rows or columns are the first antibody.
The target is the same in assay [6]. Kind of assay: Octet epitope binning, sandwich format; cell row N15F2-5 / column N15F2-5; the sheet does not say whether rows or columns are the first antibody.

Sequence of HSP70 (human HSP70; the antigen of the binning, humanization and variant binding assays) (human) (P0DMV8 whole entry, change not shown): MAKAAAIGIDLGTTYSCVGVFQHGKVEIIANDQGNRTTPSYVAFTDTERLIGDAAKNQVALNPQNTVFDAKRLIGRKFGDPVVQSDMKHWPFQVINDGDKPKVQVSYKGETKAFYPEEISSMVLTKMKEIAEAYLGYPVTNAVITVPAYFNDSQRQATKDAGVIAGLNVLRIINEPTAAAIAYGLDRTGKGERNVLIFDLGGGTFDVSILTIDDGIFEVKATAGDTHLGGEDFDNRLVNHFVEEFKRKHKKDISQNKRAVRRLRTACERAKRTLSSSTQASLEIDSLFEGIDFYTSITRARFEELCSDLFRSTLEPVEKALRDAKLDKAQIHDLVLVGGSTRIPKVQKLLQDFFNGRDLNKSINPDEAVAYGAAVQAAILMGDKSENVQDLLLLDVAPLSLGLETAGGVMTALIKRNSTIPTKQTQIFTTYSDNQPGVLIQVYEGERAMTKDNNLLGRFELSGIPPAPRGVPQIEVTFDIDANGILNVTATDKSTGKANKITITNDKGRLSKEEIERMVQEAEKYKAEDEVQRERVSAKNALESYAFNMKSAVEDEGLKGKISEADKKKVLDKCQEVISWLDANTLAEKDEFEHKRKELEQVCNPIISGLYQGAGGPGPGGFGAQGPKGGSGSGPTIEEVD

As for “C92F3-5 (Fisher Scientific) anti-HSP70 antibody”, the values for the maximal binding in the presence of the potentially competing antibody (given as a fraction; legend: percent) in assay [1], in assay [2] and in assay [3] were 0.781, 0.489 and 0, respectively.
Turning to “N15F2-5 (Enzo Life Sciences) anti-HSP70 antibody”, the results for the maximal binding in the presence of the potentially competing antibody (given as a fraction; legend: percent) in assay [4], in assay [5] and in assay [6] were 0.761, 0.492 and 0, respectively.
